The values that follow come from EP4810513A1 (Genexine, Inc., dated 2026).

The target in experiment [1] is huSOX2.V5 (huSOX2 with a V5-tag at the C-terminus) (human, UniProt P48431 1-317). Briefly: cell-based or functional assay.
Experiment [2] addresses T1, human SRY-box transcription factor 2 (huSOX2) with C-terminal 6×His-tag, produced by Biointron (human, UniProt P48431 1-317).
T1 construct: also called huSOX2 protein; biotinylated huSOX2 (Biointron)
Briefly: selection from a naive sdAb phage display library, three rounds of panning.

The target in experiment [3] is CynoSOX2 with C-terminal 6×His-tag, produced by Biointron (cyno, UniProt P48431 45-317 (human entry), limits assumed). The experiment is described as above.
Sequence of CynoSOX2 with C-terminal 6×His-tag, produced by Biointron (P48431 other isoform, or with tags, fused parts or gaps limits assumed): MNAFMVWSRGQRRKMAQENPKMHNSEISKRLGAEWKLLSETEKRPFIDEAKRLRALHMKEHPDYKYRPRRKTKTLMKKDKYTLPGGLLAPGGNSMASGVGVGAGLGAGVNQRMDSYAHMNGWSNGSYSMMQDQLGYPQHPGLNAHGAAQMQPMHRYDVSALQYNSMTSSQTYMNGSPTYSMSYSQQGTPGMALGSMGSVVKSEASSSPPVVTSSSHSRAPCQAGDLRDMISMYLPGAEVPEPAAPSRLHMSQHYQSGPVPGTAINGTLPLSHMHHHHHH
In experiment [4] the target is T2, huSOX3 with C-terminal 6×His-tag, produced by Biointron (human, UniProt P41225 1-446).
T2 sequence: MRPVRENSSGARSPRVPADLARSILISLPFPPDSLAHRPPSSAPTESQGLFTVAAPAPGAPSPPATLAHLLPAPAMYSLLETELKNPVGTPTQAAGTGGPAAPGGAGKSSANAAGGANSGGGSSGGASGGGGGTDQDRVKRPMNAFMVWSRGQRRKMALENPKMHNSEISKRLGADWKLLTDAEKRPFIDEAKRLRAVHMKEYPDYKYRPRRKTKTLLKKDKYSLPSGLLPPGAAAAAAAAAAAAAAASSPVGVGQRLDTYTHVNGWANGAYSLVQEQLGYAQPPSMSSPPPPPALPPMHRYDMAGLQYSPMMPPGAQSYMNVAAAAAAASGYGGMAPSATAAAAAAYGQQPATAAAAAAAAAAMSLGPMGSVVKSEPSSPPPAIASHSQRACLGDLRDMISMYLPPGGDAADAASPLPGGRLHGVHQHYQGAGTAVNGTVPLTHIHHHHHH
The description is as above.

In experiment [5] the target is T3, huSOX2 protein with N-terminal Halo tag (pHTN vector), expressed in HEK293T cells (human, UniProt P48431 1-317, HaloTag 618 ligand bound to the Halo tag).
T3 construct: Expressed inside HEK293T cells (NanoBRET); not shown: Halo tag
T3 sequence (P48431 whole entry): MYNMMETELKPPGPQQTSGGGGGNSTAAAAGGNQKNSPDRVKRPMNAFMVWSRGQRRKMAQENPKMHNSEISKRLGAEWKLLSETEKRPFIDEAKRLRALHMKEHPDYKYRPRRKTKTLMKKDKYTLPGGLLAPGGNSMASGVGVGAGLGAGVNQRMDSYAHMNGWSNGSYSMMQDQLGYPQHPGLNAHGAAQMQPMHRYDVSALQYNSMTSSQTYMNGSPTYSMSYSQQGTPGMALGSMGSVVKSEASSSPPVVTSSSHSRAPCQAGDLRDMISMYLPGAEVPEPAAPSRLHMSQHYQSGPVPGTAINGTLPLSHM
As to the kind of experiment: NanoBRET in HEK293T cells, NanoLuc-VHH and Halo-huSOX2.

Experiment [6] has as its target T1, human SRY-box transcription factor 2 …. Briefly: 96-well ELISA screening of individual colonies, 20 ug/mL huSOX2.

T1 sequence (P48431 other isoform, or with tags, fused parts or gaps limits assumed): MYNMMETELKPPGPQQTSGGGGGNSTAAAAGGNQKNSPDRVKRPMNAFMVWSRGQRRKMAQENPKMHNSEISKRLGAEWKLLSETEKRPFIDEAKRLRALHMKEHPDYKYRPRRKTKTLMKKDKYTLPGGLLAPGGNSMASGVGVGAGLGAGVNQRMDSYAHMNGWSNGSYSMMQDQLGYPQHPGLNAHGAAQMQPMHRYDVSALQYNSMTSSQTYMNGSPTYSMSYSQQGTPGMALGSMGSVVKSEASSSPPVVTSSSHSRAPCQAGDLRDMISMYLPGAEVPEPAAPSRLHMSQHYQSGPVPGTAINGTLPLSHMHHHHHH
Sequence of huSOX2.V5 (huSOX2 with a V5-tag at the C-terminus) (P48431 other isoform, or with tags, fused parts or gaps): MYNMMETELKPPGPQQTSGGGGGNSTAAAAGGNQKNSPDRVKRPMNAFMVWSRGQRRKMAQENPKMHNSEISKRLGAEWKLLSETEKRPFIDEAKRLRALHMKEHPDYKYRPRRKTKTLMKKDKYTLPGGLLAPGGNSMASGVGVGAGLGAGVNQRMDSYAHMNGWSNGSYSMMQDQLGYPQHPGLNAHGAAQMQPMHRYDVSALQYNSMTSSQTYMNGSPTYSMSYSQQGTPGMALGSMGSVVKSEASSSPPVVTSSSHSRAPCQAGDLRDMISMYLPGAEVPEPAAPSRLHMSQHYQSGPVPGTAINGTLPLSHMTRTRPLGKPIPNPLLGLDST

B1: 3A2.011 (Flag-tag - TRIM21 2-85 - GS linker - 3A2) (other)
chain: DYKDDDDKTRASAARLTMMWEEVTCPICLDPFVEPVSIECGHSFCQECISQVGKGGGSVCPVCRQRFLLKNLRPNRQLANMVNNLKEISQEAREGSEVQLVESGGEQVQPGSSLKLSCSVSGLMISGHAMSWVRQVPGAGPEWVAVDNPGGKKNYIDSVAGRFTIARDNDANSLSLVMNGLRPEDTARYFCARVLSFKIYEGDKWALEWDYRGPGTQVTVSS
For B1, in experiment [1], the “SOX2 degradation capability compared to the control group (Mock) (HEK-293 cells)” value was at least 70%.

B2: 3F11 (anti-huSOX2 VHH antibody) (VHH)
VHH: DVQLVESGGGLVQPGGSLRLSCATSGFTFSSSTMSWVRQVPGAGPEWVAVDNPGGKKNYIDSVAGRFTIARDNDANSLSLVMNGLRPEDTARYFCARVLSFKIYEGDKWALEWDYRGPGTQVTVSS
notes: Selected from a naive sdAb phage display library (Genscript Probio)
On to B2, for which the binding result in experiment [2] is “binds”; in experiment [3] it was “binds”; in experiment [4] it was “no binding”.

B3: 3F11 with N-terminal NanoLuc tag (pNLF1-N-3F11), expressed in HEK293T cells (VHH)
VHH: DVQLVESGGGLVQPGGSLRLSCATSGFTFSSSTMSWVRQVPGAGPEWVAVDNPGGKKNYIDSVAGRFTIARDNDANSLSLVMNGLRPEDTARYFCARVLSFKIYEGDKWALEWDYRGPGTQVTVSS
notes: NanoBRET donor construct; not shown: NanoLuc tag
For B3, the binding result in experiment [5] is “binds”.

B4: 3A2.007 (Flag-tag - 3A2 - GS linker - CHIP 128-303) (other)
chain: DYKDDDDKTREVQLVESGGEQVQPGSSLKLSCSVSGLMISGHAMSWVRQVPGAGPEWVAVDNPGGKKNYIDSVAGRFTIARDNDANSLSLVMNGLRPEDTARYFCARVLSFKIYEGDKWALEWDYRGPGTQVTVSSGSRLNFGDDIPSALRIAKKKRWNSIEERRIHQESELHSYLSRLIAAERERELEECQRNHEGDEDDSHVRAQQACIEAKHDKYMADMDELFSQVDEKRKKRDIPDYLCGKISFELMREPCITPSGITYDRKDIEEHLQRVGHFDPVTRSPLTQEQLIPNLAMKEVIDAFISENGWVEDY
With B4, the “SOX2 degradation capability compared to the control group (Mock) (HEK-293 cells)” value in experiment [1] was at least 70%.

B5: 1B9 (anti-huSOX2 VHH antibody clone) (VHH)
VHH: EVQLVESGGGLVQPGGSLRLSCAASGLTFSTYSMGWFRQAPGKEREFVAAITWNSGRRTYYADSVKGRFTISADNSKNTAYLQMNSLKPEDTAVYYCASRVDDRVWGQGTLVTVSS
notes: Clone from the VHH phage library panning; tested as individual colony in ELISA screening
In the case of B5, the binding result in experiment [6] was “binds”.

B6: 3A2.012 (Flag-tag - 3A2 - GS linker - RNF4 71-190) (other)
chain: DYKDDDDKTREVQLVESGGEQVQPGSSLKLSCSVSGLMISGHAMSWVRQVPGAGPEWVAVDNPGGKKNYIDSVAGRFTIARDNDANSLSLVMNGLRPEDTARYFCARVLSFKIYEGDKWALEWDYRGPGTQVTVSSGSDERRRPRRNARRLPQDHADSCVVSSDDEELSRDRDVYVTTHTPRNARDEGATGLRPSGTVSCPICMDGYSEIVQNGRLIVSTECGHVFCSQCLRDSLKNANTCPTCRKKINHKRYHPIYI
Consider B6, for which the “SOX2 degradation capability compared to the control group (Mock) (HEK-293 cells)” value in experiment [1] is at least 70%.

B7: 3H9 with N-terminal NanoLuc tag (pNLF1-N-3H9), expressed in HEK293T cells (VHH)
VHH: QVQLVESGGEQVQPGSSLKLSCSVSGLMISGHAMSWVRQVPGAGPEWVAVDNPGGKKNYIDSVAGRFTIARDNDANSLSLVMNGLRPEDTARYFCARVLSFKIYGGDKWALEWDYRGPGTQVTVSS
notes: as for B3
Take B7: the binding result in experiment [5] was “binds”.

B8: 1C4 (anti-huSOX2 VHH antibody clone) (VHH)
VHH: EVQLVESGGGLVQPGGSLRLSCAASGGGFRGNAVMGWFRQAPGKERELVAAIRGSGEDTYYADSVKGRFTISADNSKNTAYLQMNSLKPEDTAVYYCAGGWRRGYFQDWGQGTLVTVSS
notes: as for B5
For the molecule B8, in experiment [6], the binding result is “binds”.

B9: 2E8 (anti-huSOX2 VHH antibody clone) (VHH)
VHH: EVQLVESGGGLVQPGGSLRLSCAASGFTLDYYGMGWFRQAPGKEREFVAAISRSGGSTVYADSVKGRFTISADNSKNTAYLQMNSLKPEDTAVYYCAREVVRGGINYWGQGTLVTVSS
notes: as for B5
Regarding B9, the binding result in experiment [6] is reported as “binds”.

B10: 2E8 with N-terminal NanoLuc tag (pNLF1-N-2E8), expressed in HEK293T cells (VHH)
VHH: EVQLVESGGGLVQPGGSLRLSCAASGFTLDYYGMGWFRQAPGKEREFVAAISRSGGSTVYADSVKGRFTISADNSKNTAYLQMNSLKPEDTAVYYCAREVVRGGINYWGQGTLVTVSS
notes: as for B3
As to B10, in experiment [5], the binding result was “binds”.

B11: 1C2 (anti-huSOX2 VHH antibody clone) (VHH)
VHH: EVQLVESGGGLVQPGGSLRLSCAASGSTYTTYSMGWFRQAPGKEREFVAAIRWSGGTTYYADSVKGRFTISADNSKNTAYLQMNSLKPEDTAVYYCASRVDDRVWGQGTLVTVSS
notes: as for B5
Regarding B11, the binding result in experiment [6] was “binds”.

B12: 1A9 (anti-huSOX2 VHH antibody clone) (VHH)
VHH: EVQLVESGGGLVQPGGSLRLSCAASGRTFSTYSMGWFRQAPGKEREFVAAIRWTAGTTYYADSVKGRFTISADNSKNTAYLQMNSLKPEDTAVYYCASRVDDRVWGQGTLVTVSS
notes: as for B5
Regarding B12, the binding result in experiment [6] is listed as “binds”.

B13: 1C11 (anti-huSOX2 VHH antibody clone) (VHH)
VHH: EVQLVESGGGLVQPGGSLRLSCAASGSTYTTYSMGWFRQAPGKEREFVGAIRWSGGTTYYADSVKGRFTISADNSKNTAYLQMNSLKPEDTAVYYCASRVDDRVWGQGTLVTVSS
notes: as for B5
In the case of B13, the binding result in experiment [6] is “binds”.

B14: 1C12 (anti-huSOX2 VHH antibody clone) (VHH)
VHH: EVQLVESGGGLVQPGGSLRLSCAASGSTYTTYSMGWFRQAPGKEREFVAAIRWSGGSTHYADSVKGRFTISADNSKNTAYLQMNSLKPEDTAVYYCASRVDDRVWGQGTLVTVSS
notes: as for B5
As to B14, in experiment [6], the binding result is reported as “binds”.

B15: 1A5 (anti-huSOX2 VHH antibody clone) (VHH)
VHH: EVQLVESGGGLVQPGGSLRLSCAASGSTYTTYSMGWFRQAPGKEREFVGAIHWSGGRTYYADSVKGRFTISADNSKNTAYLQMNSLKPEDTAVYYCASRVDDRVWGQGTLVTVSS
notes: as for B5
In the case of B15, the binding result in experiment [6] was “binds”.

B16: 1A11 (anti-huSOX2 VHH antibody clone) (VHH)
VHH: EVQLVESGGGLVQPGGSLRLSCAASGSTYTTYSMGWFRQAPGKEREFVAAIHWSGGGTYYADSVKGRFTISADNSKNTAYLQMNSLKPEDTAVYYCASRVDDRVWGQGTLVTVSS
notes: as for B5
On to B16, for which the binding result in experiment [6] is on record as “binds”.

B17: 3A2.005 (Flag-tag - 3A2 - GS linker - SPOP 167-374) (other)
chain: DYKDDDDKTREVQLVESGGEQVQPGSSLKLSCSVSGLMISGHAMSWVRQVPGAGPEWVAVDNPGGKKNYIDSVAGRFTIARDNDANSLSLVMNGLRPEDTARYFCARVLSFKIYEGDKWALEWDYRGPGTQVTVSSGSSVNISGQNTMNMVKVPECRLADELGGLWENSRFTDCCLCVAGQEFQAHKAILAARSPVFSAMFEHEMEESKKNRVEINDVEPEVFKEMMCFIYTGKAPNLDKMADDLLAAADKYALERLKVMCEDALCSNLSVENAAEILILADLHSADQLKTQAVDFINYHASDVLETSGWKSMVVSHPHLVAEAYRSLASAQCPFLGPPRKRLKQS
As to B17, the “SOX2 degradation capability compared to the control group (Mock) (HEK-293 cells)” value in experiment [1] was at least 70%.
